Assay results reported in patent US20060057614A1 (priority 2004, published 2006).

Biological target: sodium Nav1.2 voltage-gated channel (expressed in Xenopus oocytes)
Test: cell-based or functional assay

**Q.** With tethered µ-o-conotoxin MrVIA as the substance, how does the current flux through the channel, whole cell currents in Xenopus oocytes read?
**A.** 90%
